Assay: soluble on expression in E. coli; label from the status in PepcDB or PDB records

Sequence | soluble on expression in E. coli
MSLLADLVNLDISDNSEKIIAEYIWVGGSGMDMRSKARTLPGPVTDPSKLPKWNYDGSSTGQAPGQDSEVILYPQAIFKDPFRRGNNILVMCDAYTPAGEPIPTNKRHAAAEIFANPDVIAEVPWYGIEQEYTLLQKDVNWPLGWPIGGFPGPQGPYYCSIGADKSFGRDIVDAHYKASLYAGINISGINGEVMPGQWEFQVGPSVGISAADEIWIARYILERITEIAGVVVSFDPKPIPGDWNGAGAHTNYSTKSMREEGGYEIIKKAIEKLGLRHKEHISAYGEGNERRLTGHHETADINTFLWGVANRGASIRVGRDTEKEGKGYFEDRRPASNMDPYVVTSMIAETTLLWNP | soluble
MFEVPITLTNRKFAQRRKLKYQYINYISRRFDRISKKSTTTDSLPTPENSAAENNDEEEGQNSEAGTYRRSVLQQKKRRRERHWRSVVGEIYSTTESETDSQEEETEEGGEHDTGIDKEDSDEERKFWKKYEKPEKSFEIWRTVSSQNKQPINKQKMTYHNFKKIEKIPLRKMEIPLLHCTKENKLYFQSISRGLEPLKTSTSEVRNYRTRHIVTLTDLLHLNVSRHNWSLAYKIFATLIRIPGVQIKSLWGIGVEILDNLSNSSSGLDFLQWMCQIYSSKSRFVQNINYRSIVPPFQTGSRTHTAKFAITYLWSSLINCQKSMEPSSNIIDKPFDTENDLLQELIDKISEWVLTPPFMEDAEVWFIYASCHLLKADTLSRQFVNDNKNNDLIGLDRDIKINQVIKHIHYVRTFLKICLDKGGFAVPSRLIENQLKSFESRLYGEAQDIQERDVANVYDSIDNSSVENSFGDVYETNAEFLDTQLMDLSPEDNGLDEMHYSDEDSSE | not soluble
MKLEIGYNHPFEIRKERYESDHVCNFSVLYISDLHLTVFSKDICTRLSKCIQELNPTIIILGGDYIDCRNGWDYLSTFFKFLSARKNVFSIAGNHDYFYGIDEIKKLIESNNIHWLENQSAVVNIQEYNILLTGNNETQSSIPADFNILCLHKPVSLDAFKIPYHIAFAGHLHGCQCVFWQNENGLYPGRFFYTFNFLRRQVKNCLYLISKGLGDTLPIRFNCKKDIIFVEIKNNSNKLEHHHHHH | not soluble
MMTRLPLGATLPDFPWDSLADAKKTASSHPDGLINLSVGSPVDEVAPGIRLALAEAAAAPGYPQTIGTQELRAAIVDSLQRRYHATSLGGVLPVVGTKEAIALLPTLLGIRGTVVIPEVAYPTYEVGALMAGATPLRCDAPHELPNDDIDLVFINSPSNPTGRVASVEELRSIVAWAQANDVIVASDECYLGLAWDGEAVSILDPRVNDGNLSNLLAIHSLSKSSNLASYRAGFLAGDEALIAELTEIRKHSGLMVPGPIQAAMVEALRDDDQEALQKLRYARRRALLMRALIDAGFTVEHSEAGLYLWATRGENCRATVDWFASHGILVAPGDFYGPDAHNFVRVALTTTDDNAEKVAARLQKGN | soluble
MKRVISKILKKEKEKEEEVEEKTIGLIIDGPNILRKEFGIKLEDIKKALEKIGKIRVAKVVLNQYAPQGLIEAVVNQGFEPIIVAGDTDVRVAIEAMELIYNTDVDVIALATRDADFLPLISEAKRKGKETVVIGVEPGFSVALQNAADYIIKMEKKKEAEGY | soluble
MARPLEQAVAAIVCTFQEYAGRCGDKYKLCQAELKELLQKELATWTPTEFRECDYNKFMSVLDTNKDCEVDFVEYVRSLACLCLYCHEYFKDCPSEPPCSQ | soluble
MSQSKVAMKKDSMRKNKKLVINIALDKEVLASRVEADHDLGSVRDEKERLESSERRREVCSKAEDIVDKAIDNHSRVRGDGIMREADVGTGLSGALNRLREQGTFKEEGKVVGVKDNNHEDDRFKDRFKDIQIQRVNKWGRIMTEKEAYRSLCHGFHGKGPGKKKQEKQRKKHEDKSKQMESSERSVERIREIHAISKTPYIVL | soluble
MANFVQLSETPAACSSNPCGPEAAGTCKETNSGYICRCNQGYRISLDGTGNVTCIVRQESG | soluble
MSLRIAIQGCSHGSLAQIYDVVNYYSSQTKNPIDLLLLCGDFQALRSKHDYASLAVPAKFKQLGSFHQYYSGERVAPVLTIVIGGNHEASNYMWELYHGGWLAPSIYYLGAAGSVYMNGLRIVGASGIYKGFDYRKGHFEKVPYNDKELRSIYHIREYDVEKLMHLTPSPSTIFLSHDWPTTIAHHGNKNALLKRKPFFRDENTLGSPPLLRLMNHFQPSYWFSAHLHVKFAALYEHQAPSHGPDVDGGAPLPLPAMSTAIAQTGNEGHHHHHH | not soluble
GFASHQYVNHVEKQRPIVTLAKHPKKVLFFYRDDCPDCQAIFHRIYWHNVISHNVVFINMNQTQNRHYIQQYQLTSVPTLIHGKQRYTGTNQQRIKQIVGD | not soluble
